Test results as given in US7592163B2 (The Board of Trustees of the University of Illinois, priority 2004, dated 2009).

Tests used:
N. crassa XR = molecular target: T1, N. crassa XR (Neurospora crassa, UniProt Q7SD67); experiment: Kinetic analysis of N. crassa XR: initial rates, NAD(P)H consumption at 340 nm, with cofactors and sugar substrates; type: biochemical; conditions: for acts as substrate for N. crassa XR: NADPH as the cofactor; for fold difference in catalytic efficiency (kcat/KM) between NADPH and NADH: NADPH favoured over NADH; for kcat: xylose reduction with the named coenzyme, 25° C., 50 mM MOPS pH 6.3
T1 sequence (Q7SD67 1-322): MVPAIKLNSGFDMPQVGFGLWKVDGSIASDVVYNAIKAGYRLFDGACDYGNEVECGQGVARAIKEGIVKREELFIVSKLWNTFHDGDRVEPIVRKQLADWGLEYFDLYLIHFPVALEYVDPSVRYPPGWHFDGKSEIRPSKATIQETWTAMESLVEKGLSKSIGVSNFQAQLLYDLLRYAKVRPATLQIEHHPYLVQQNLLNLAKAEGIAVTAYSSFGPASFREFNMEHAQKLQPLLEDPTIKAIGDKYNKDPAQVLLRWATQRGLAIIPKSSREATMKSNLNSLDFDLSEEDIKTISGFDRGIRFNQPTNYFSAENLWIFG
Method: Michaelis-Menten constants (KM) were determined for both cofactors as well as for xylose with either cofactor. The maximum turnover number (kcat) was also determined with both cofactors. […] Xylose concentrations were varied from 10 to 250 mM while either cofactor concentration was held at 160 μM.
Analysis of substrate specificity.
Kinetic Analysis. […] All initial rate assays were carried out at 25° C. in 50 mM MOPS pH 6.3 using a Varian Cary 100 Bio UV-visible spectrophotometer unless otherwise noted. The reaction was initiated by addition of 0.1-1 μg of XR. […] The data were then converted to turnover number and fitted by non-linear regression analysis to the Michaelis-Menten equation using Origin 5.0. […] All assays were performed in duplicate or triplicate at least two times. The kinetic data presented represent averages of statistically relevant measurements and with their associated standard deviations.

[1] = literature, cited from earlier work; for kcat / Km: with NADPH as cofactor; for Km: read-out: KM, Xylose
[2] = substrate: OC1OC[C@@H](O)[C@H](O)[C@H]1O; experiment: Kinetic analysis of N. crassa XR: initial rates, NAD(P)H consumption at 340 nm, with cofactors and sugar substrates; type: biochemical, Neurospora crassa; conditions: other: KM of the sugar substrate, NADPH as cofactor, 25° C., 50 mM MOPS pH 6.3
[3] = substrate: OC1OC[C@H](O)[C@H](O)[C@H]1O; experiment: as above; type: biochemical, Neurospora crassa; conditions: other: KM of the sugar substrate, NADPH as cofactor, 25° C., 50 mM MOPS pH 6.3
[4] = substrate: OC1OC[C@@H](O)[C@@H](O)[C@H]1O; experiment: as above; type: biochemical, Neurospora crassa; conditions: other: KM of the sugar substrate, NADPH as cofactor, 25° C., 50 mM MOPS pH 6.3

Molecule: OC[C@H]1O[C@@](CO)(O[C@H]2O[C@H](CO)[C@@H](O)[C@H](O)[C@H]2O)[C@@H](O)[C@@H]1O [sucrose]
- acts as substrate for N. crassa XR (N. crassa XR): did not act as substrates

Molecule: O=C(CO)[C@@H](O)[C@H](O)[C@H](O)CO [D-fructose]
- acts as substrate for N. crassa XR (N. crassa XR): did not act as substrates

Molecule: Nicotinamide adenine dinucleotide phosphate reduced [NADPH]
- fold difference in catalytic efficiency (kcat/KM) between NADPH and NADH (N. crassa XR): 100 fold
- kcat (N. crassa XR): 60 ± 1.67 s⁻¹

Molecule: O=C[C@@H](O)[C@H](O)[C@H](O)CO [D-arabinose]
- acts as substrate for N. crassa XR (N. crassa XR): did not act as substrates
- acts as substrate for N. crassa XR (N. crassa XR; listed as D-arabinos): activity

Molecule: Nicotinamide adenine dinucleotide reduced [NADH]
- fold difference in catalytic efficiency (kcat/KM) between NADPH and NADH (N. crassa XR): 100 fold
- kcat (N. crassa XR): 5.17 ± 0.167 s⁻¹

B1: C. tenuis: xylose reductase from Candida tenuis, literature (protein, UniProt O74237 1-322, looked up)
NAD(P)H-dependent D-xylose …: MSASIPDIKLSSGHLMPSIGFGCWKLANATAGEQVYQAIKAGYRLFDGAEDYGNEKEVGDGVKRAIDEGLVKREEIFLTSKLWNNYHDPKNVETALNKTLADLKVDYVDLFLIHFPIAFKFVPIEEKYPPGFYCGDGNNFVYEDVPILETWKALEKLVAAGKIKSIGVSNFPGALLLDLLRGATIKPAVLQVEHHPYLQQPKLIEFAQKAGVTITAYSSFGPQSFVEMNQGRALNTPTLFAHDTIKAIAAKYNKTPAEVLLRWAAQRGIAVIPKSNLPERLVQNRSFNTFDLTKEDFEEIAKLDIGLRFNDPWDWDNIPIFV
- NADH-dependent XR kcat ([1]; NADH as cofactor): 18.33 s⁻¹
- Optimal pH [1]: 6.0
- kcat [1]: 21.67 s⁻¹
- Km [1]: 72 mM

B2: S. cerevisiae: xylose reductase from S. cerevisiae, literature (protein, UniProt P38715 2-327, looked up)
NADPH-dependent aldose …: SSLVTLNNGLKMPLVGLGCWKIDKKVCANQIYEAIKLGYRLFDGACDYGNEKEVGEGIRKAISEGLVSRKDIFVVSKLWNNFHHPDHVKLALKKTLSDMGLDYLDLYYIHFPIAFKYVPFEEKYPPGFYTGADDEKKGHITEAHVPIIDTYRALEECVDEGLIKSIGVSNFQGSLIQDLLRGCRIKPVALQIEHHPYLTQEHLVEFCKLHDIQVVAYSSFGPQSFIEMDLQLAKTTPTLFENDVIKKVSQNHPGSTTSQVLLRWATQRGIAVIPKSSKKERLLGNLEIEKKFTLTEQELKDISALNANIRFNDPWTWLDGKFPTFA
- kcat [1]: 14.3 s⁻¹
- Km [1]: 13.6 mM

B3: P. stipitus: NADPH-dependent xylose reductase from P. stipitus, literature (protein, UniProt P31867 1-318, looked up)
NAD(P)H-dependent D-xylose …: MPSIKLNSGYDMPAVGFGCWKVDVDTCSEQIYRAIKTGYRLFDGAEDYANEKLVGAGVKKAIDEGIVKREDLFLTSKLWNNYHHPDNVEKALNRTLSDLQVDYVDLFLIHFPVTFKFVPLEEKYPPGFYCGKGDNFDYEDVPILETWKALEKLVKAGKIRSIGVSNFPGALLLDLLRGATIKPSVLQVEHHPYLQQPRLIEFAQSRGIAVTAYSSFGPQSFVELNQGRALNTSPLFENETIKAIAAKHGKSPAQVLLRWSSQRGIAIIPKSNTVPRLLENKDVNSFDLDEQDFADIAKLDINLRFNDPWDWDKIPIFV
- Optimal pH [1]: 6.0
- kcat [1]: 25 s⁻¹
- Km [1]: 42 mM

B4: N. crassa XR (Neurospora crassa OR74A) (protein)
chain: T1 sequence (Q7SD67 1-322)
- Km [2]: 34 mM
- kcat [2]: 60 ± 3.33 s⁻¹
- kcat/Km [2]: 1830 M⁻¹ s⁻¹
- Km [3]: 40 ± 10 mM
- kcat [3]: 30 ± 1.67 s⁻¹
- kcat/Km [3]: 750 M⁻¹ s⁻¹
- Km [4]: 70 ± 10 mM
- kcat/Km [4]: 750 M⁻¹ s⁻¹
